Test results as given in patent publication US20210388087A1 (Chugai, published 2021).
Numbering of substitutions follows the chain as printed. Numbers in names are those of the source.

B1: GPC3 ERY22-B (bispecific antibody, human IgG1, kappa, L234A L235A, N297A)
heavy 1: DIVMTQSPLSLPVTPGEPASISCRSSQSLVHSNRNTYLHWYQQKPGQAPRLLIYKVSNRFSGVPDRFSGSGSGTDFTLKISRVEAEDVGVYYCSQNTHVPPTFGQGTKLEIKSSASTKGPSVFPLAPSSKSTSGGTAALGCLVKDYFPEPVTVSWNSGALTSGVHTFPAVLQSSGLYSLSSVVTVPSSSLGTQTYICNVNHKPSNTKVDKKVEPKSCDKTHTCPPCPAPEAAGGPSVFLFPPKPKDTLMISRTPEVTCVVVDVSHEDPEVKFNWYVDGVEVHNAKTKPREEQYASTYRVVSVLTVLHQDWLNGKEYKCKVSNKALPAPIEKTISKAKGQPREPQVCTLPPSRDELTKNQVSLWCLVKGFYPSDIAVEWESNGQPENNYKTTPPVLDSDGSFFLYSKLTVDKSRWQQGNVFSCSVMHEALHNHYTQKSLSLSPHHHHHHHH
light 1: QVQLVQSGAEVKKPGASVKVSCKASGYTFTDYEMHWIRQPPGQGLEWIGAIDPKTGDTAYSQKFKGRVTLTADKSTSTAYMELSSLTSEDTAVYYCTRFYSYTYWGQGTLVTVSSASVAAPSVFIFPPSDEQLKSGTASVVCLLNNFYPREAKVQWKVDNALQSGNSQESVTEQDSKDSTYSLSSTLTLSKADYEKHKVYACEVTHQGLSSPVTKSFNRGEC
heavy 2: QVQLQQWGAGLLKPSETLSLTCAVYGGSFSGYYWSWIRQSPEKGLEWIGEINHGGYVTYNPSLESRVTISVDTSKNQFSLKLSSVTAADTAVYYCARDYGPGNYDWYFDLWGRGTLVTVSSASTKGPSVFPLAPSSKSTSGGTAALGCLVKDYFPEPVTVSWNSGALTSGVHTFPAVLQSSGLYSLSSVVTVPSSSLGTQTYICNVNHKPSNTKVDKKVEPKSCDKTHTCPPCPAPEAAGGPSVFLFPPKPKDTLMISRTPEVTCVVVDVSHEDPEVKFNWYVDGVEVHNAKTKPREEQYASTYRVVSVLTVLHQDWLNGKEYKCKVSNKALPAPIEKTISKAKGQPREPQVYTLPPSRCELTKNQVSLSCAVKGFYPSDIAVEWESNGQPENNYKTTPPVLDSDGSFFLVSKLTVDKSRWQQGNVFSCSVMHEALHNHYTQKSLSLSP
light 2: not shown
B2: GPC3 ERY22-dBBDu_186/L106 (bispecific antibody, human IgG1, kappa, L234A L235A, N297A)
heavy 1: B1 heavy 1
light 1: B1 light 1
heavy 2: QVQLVESGGGLVQPGRSLRLSCAASGFTFSNAWMHWVRQAPGKGLEWVAQIKDRSNQYATYYAPSVKGRFTISRDDSKNSIYLQMNSLKTEDTAVYYCHYVHYAQASTVLPAFGVDAWGQGTTVTVSSASTKGPSVFPLAPSSKSTSGGTAALGCLVKDYFPEPVTVSWNSGALTSGVHTFPAVLQSSGLYSLSSVVTVPSSSLGTQTYICNVNHKPSNTKVDKKVEPKSCDKTHTCPPCPAPEAAGGPSVFLFPPKPKDTLMISRTPEVTCVVVDVSHEDPEVKFNWYVDGVEVHNAKTKPREEQYASTYRVVSVLTVLHQDWLNGKEYKCKVSNKALPAPIEKTISKAKGQPREPQVYTLPPSRCELTKNQVSLSCAVKGFYPSDIAVEWESNGQPENNYKTTPPVLDSDGSFFLVSKLTVDKSRWQQGNVFSCSVMHEALHNHYTQKSLSLSPDYKDDDDK
light 2: DIVMTQSPLSLPVTPGEPASISCSTSEELLHINRFIFLHWYQQKPGQAPRLLIYKVANRFMGVPDRFSGSGSGTDFTLKISRVEAEDVGVYYCAQGSQVPFTFGQGTKLEIKRTVAAPSVFIFPPSDEQLKSGTASVVCLLNNFYPREAKVQWKVDNALQSGNSQESVTEQDSKDSTYSLSSTLTLSKADYEKHKVYACEVTHQGLSSPVTKSFNRGEC
B3: GPC3 ERY22-dBBDu_183/L063 (bispecific antibody, human IgG1, kappa, L234A L235A, N297A)
heavy 1: B1 heavy 1
light 1: B1 light 1
heavy 2: B2 heavy 2 with R54K, S55G, Q57A, T60A, Q105S
light 2: DIVMTQSPLSLPVTPGEPASISCRSSQELVHTNRHTYLHWYQQKPGQAPRLLIYKVSNRFPGVPDRFSGSGSGTDFTLKISRVEAEDVGVYYCAQGTQVPFTFGQGTKLEIKRTVAAPSVFIFPPSDEQLKSGTASVVCLLNNFYPREAKVQWKVDNALQSGNSQESVTEQDSKDSTYSLSSTLTLSKADYEKHKVYACEVTHQGLSSPVTKSFNRGEC
B4: GPC3 ERY22-dBBDu_167/L091 (bispecific antibody, human IgG1, kappa, L234A L235A, N297A)
heavy 1: B1 heavy 1
light 1: B1 light 1
heavy 2: B2 heavy 2 with R54K, S55G, Q57L, T60A, Q105S, S107G, T108G, V109G, A112G
light 2: B3 light 2 with R24S, S25A, Q27E, E28S, V30L, T32N, K55R, P61N, A94G
B5: GPC3 ERY22-dBBDu_186/L096 (bispecific antibody, human IgG1, kappa, L234A L235A, N297A)
heavy 1: B1 heavy 1
light 1: B1 light 1
heavy 2: B2 heavy 2
light 2: B3 light 2 with S25T, T32I, H35Y, T36I, Y37F, S57Y, P61Q, Q98S, F101Y
B6: GPC3 ERY22-dBBDu_183/L072 (bispecific antibody, human IgG1, kappa, L234A L235A, N297A)
heavy 1: B1 heavy 1
light 1: B1 light 1
heavy 2: B2 heavy 2 with R54K, S55G, Q57A, T60A, Q105S
light 2: B3 light 2 with R24Q, S25A, T32M, H35N, Q98S
B7: GPC3 ERY22-dBBDu_186/L098 (bispecific antibody, human IgG1, kappa, L234A L235A, N297A)
heavy 1: B1 heavy 1
light 1: B1 light 1
heavy 2: B2 heavy 2
light 2: B2 light 2 with S24A, T25A, L30V, F35Y, A57S, M61I
B8: dBBDu183H V100cQ / dBBDu072L (antibody, name in Kabat numbering, V domains shown)
VH: QVQLVESGGGLVQPGRSLRLSCAASGFTFSNAWMHWVRQAPGKGLEWVAQIKDKGNAYAAYYAPSVKGRFTISRDDSKNSIYLQMNSLKTEDTAVYYCHYVHYASASTQLPAFGVDAWGQGTTVTVSS
VL: DIVMTQSPLSLPVTPGEPASISCQASQELVHMNRNTYLHWYQQKPGQAPRLLIYKVSNRFPGVPDRFSGSGSGTDFTLKISRVEAEDVGVYYCAQGTSVPFTFGQGTKLEIK
notes: as m1, one VH change
B9: dBBDu183H V100cY / dBBDu072L (antibody, name in Kabat numbering, V domains shown)
VH: B8 VH with Q109Y
VL: B8 VL
notes: as m1, one VH change
B10: dBBDu183H Y94T / dBBDu072L (antibody, name in Kabat numbering, V domains shown)
VH: B8 VH with Y100T, Q109V
VL: B8 VL
notes: as m1, one VH change
B11: dBBDu183H Y94S / dBBDu072L (antibody, name in Kabat numbering, V domains shown)
VH: B8 VH with Y100S, Q109V
VL: B8 VL
notes: as m1, one VH change
B12: dBBDu183H V100iT / dBBDu072L (antibody, name in Kabat numbering, V domains shown)
VH: B8 VH with Q109V, V115T
VL: B8 VL
notes: as m1, one VH change
B13: dBBDu183H Y94F / dBBDu072L (antibody, name in Kabat numbering, V domains shown)
VH: B8 VH with Y100F, Q109V
VL: B8 VL
notes: as m1, one VH change
B14: dBBDu183H V100cT / dBBDu072L (antibody, name in Kabat numbering, V domains shown)
VH: B8 VH with Q109T
VL: B8 VL
notes: as m1, one VH change
B15: dBBDu183H V100cW / dBBDu072L (antibody, name in Kabat numbering, V domains shown)
VH: B8 VH with Q109W
VL: B8 VL
notes: as m1, one VH change
B16: dBBDu183H Y94Q / dBBDu072L (antibody, name in Kabat numbering, V domains shown)
VH: B8 VH with Y100Q, Q109V
VL: B8 VL
notes: as m1, one VH change
B17: dBBDu183H Y94D / dBBDu072L (antibody, name in Kabat numbering, V domains shown)
VH: B8 VH with Y100D, Q109V
VL: B8 VL
notes: as m1, one VH change
B18: dBBDu183H Y97F / dBBDu072L (antibody, name in Kabat numbering, V domains shown)
VH: B8 VH with Y103F, Q109V
VL: B8 VL
notes: as m1, one VH change
B19: dBBDu183H Y94N / dBBDu072L (antibody, name in Kabat numbering, V domains shown)
VH: B8 VH with Y100N, Q109V
VL: B8 VL
notes: as m1, one VH change
B20: dBBDu183H V100cR / dBBDu072L (antibody, name in Kabat numbering, V domains shown)
VH: B8 VH with Q109R
VL: B8 VL
notes: as m1, one VH change
B21: dBBDu183H V100cS / dBBDu072L (antibody, name in Kabat numbering, V domains shown)
VH: B8 VH with Q109S
VL: B8 VL
notes: as m1, one VH change
B22: dBBDu183H Y97W / dBBDu072L (antibody, name in Kabat numbering, V domains shown)
VH: B8 VH with Y103W, Q109V
VL: B8 VL
notes: as m1, one VH change

These binders were tested against human CD137 on HDLM-2 cells (human, UniProt Q07011 24-255) (assay: cell-based or functional assay).
Chain of human CD137 on HDLM-2 cells (Q07011 24-255): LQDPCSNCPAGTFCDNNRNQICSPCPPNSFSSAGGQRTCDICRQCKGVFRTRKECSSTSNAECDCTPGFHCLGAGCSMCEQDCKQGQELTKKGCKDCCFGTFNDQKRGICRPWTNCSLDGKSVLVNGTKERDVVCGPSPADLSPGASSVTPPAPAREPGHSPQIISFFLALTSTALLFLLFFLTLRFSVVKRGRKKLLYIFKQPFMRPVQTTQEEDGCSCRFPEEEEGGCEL
B1 was tested, and the “Agonistic activity compared to B, antibody 6 ug/mL” value was 100%, the “Agonistic activity compared to B, antibody 30 ug/mL” value was 100% and the “Agonistic activity compared to Ctrl, antibody 6 ug/mL” value was 347%. For the same binder, the “Agonistic activity compared to Ctrl, antibody 30 ug/mL” value was 380%, the “hIL-6 (pg/mL), antibody 6 ug/mL” value was 4520 pg/mL and the “hIL-6 (pg/mL), antibody 30 ug/mL” value was 4340 pg/mL. B2 was tested, and the “Agonistic activity compared to B, antibody 6 ug/mL” value was 13.2%, the “Agonistic activity compared to B, antibody 30 ug/mL” value was 19.4% and the “Agonistic activity compared to Ctrl, antibody 6 ug/mL” value was 45.8%. The “Agonistic activity compared to Ctrl, antibody 30 ug/mL” value was 73.6%, the “hIL-6 (pg/mL), antibody 6 ug/mL” value was 1480 pg/mL and the “hIL-6 (pg/mL), antibody 30 ug/mL” value was 1570 pg/mL. B3 was tested, and the “Agonistic activity compared to B, antibody 6 ug/mL” value was -1.27%, the “Agonistic activity compared to B, antibody 30 ug/mL” value was 6.51% and the “Agonistic activity compared to Ctrl, antibody 6 ug/mL” value was -4.41%. The “Agonistic activity compared to Ctrl, antibody 30 ug/mL” value was 24.7%, the “hIL-6 (pg/mL), antibody 6 ug/mL” value was 968 pg/mL and the “hIL-6 (pg/mL), antibody 30 ug/mL” value was 1130 pg/mL. For B4, the “Agonistic activity compared to B, antibody 6 ug/mL” value was -2.21%, the “Agonistic activity compared to B, antibody 30 ug/mL” value was 1.1% and the “Agonistic activity compared to Ctrl, antibody 6 ug/mL” value was -7.68%. The “Agonistic activity compared to Ctrl, antibody 30 ug/mL” value was 4.19%, the “hIL-6 (pg/mL), antibody 6 ug/mL” value was 935 pg/mL and the “hIL-6 (pg/mL), antibody 30 ug/mL” value was 944 pg/mL. B5 was tested, and the “Agonistic activity compared to B, antibody 6 ug/mL” value was 19%, the “Agonistic activity compared to B, antibody 30 ug/mL” value was 24.2% and the “Agonistic activity compared to Ctrl, antibody 6 ug/mL” value was 66.1%. The “Agonistic activity compared to Ctrl, antibody 30 ug/mL” value was 91.7%, the “hIL-6 (pg/mL), antibody 6 ug/mL” value was 1680 pg/mL and the “hIL-6 (pg/mL), antibody 30 ug/mL” value was 1740 pg/mL. B6 was tested, and the “Agonistic activity compared to B, antibody 6 ug/mL” value was 3.21%, the “Agonistic activity compared to B, antibody 30 ug/mL” value was 15.8% and the “Agonistic activity compared to Ctrl, antibody 6 ug/mL” value was 11.1%. For the same binder, the “Agonistic activity compared to Ctrl, antibody 30 ug/mL” value was 59.8%, the “hIL-6 (pg/mL), antibody 6 ug/mL” value was 1130 pg/mL and the “hIL-6 (pg/mL), antibody 30 ug/mL” value was 1450 pg/mL. In the case of B7, the “Agonistic activity compared to B, antibody 6 ug/mL” value is reported as 13.9%, the “Agonistic activity compared to B, antibody 30 ug/mL” value is reported as 24.6% and the “Agonistic activity compared to Ctrl, antibody 6 ug/mL” value is reported as 48.3%. For the same binder, the “Agonistic activity compared to Ctrl, antibody 30 ug/mL” value was 93.5%, the “hIL-6 (pg/mL), antibody 6 ug/mL” value was 1500 pg/mL and the “hIL-6 (pg/mL), antibody 30 ug/mL” value was 1750 pg/mL.

The binders below were run against T1, Human CD137 ECD (human) (assay: SPR, vs parent H183/L072).
T1 construct: also called 4-1BB
T1 sequence (chain, as listed by the source limits assumed): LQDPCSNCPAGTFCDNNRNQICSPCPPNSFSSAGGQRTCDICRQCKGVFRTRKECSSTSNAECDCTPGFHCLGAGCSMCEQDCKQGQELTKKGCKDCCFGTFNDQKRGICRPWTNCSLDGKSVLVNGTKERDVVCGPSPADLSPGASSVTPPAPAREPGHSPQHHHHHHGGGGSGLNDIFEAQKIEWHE
B8 was tested, and the “fold change of affinity” value was 1.4 fold. With B9 the “fold change of affinity” value was 0.6 fold. With B10 the “fold change of affinity” value was 0.6 fold. With B11 the “fold change of affinity” value was 1.4 fold. For B12, the “fold change of affinity” value was 0.2 fold. With B13 the “fold change of affinity” value was 1.8 fold. B14 was tested, and the “fold change of affinity” value was 0.5 fold. For B15, the “fold change of affinity” value was 0.6 fold. B16 was tested, and the “fold change of affinity” value was 0.3 fold. For B17, the “fold change of affinity” value was 0.2 fold. In the case of B18, the “fold change of affinity” value is reported as 1.8 fold. In the case of B19, the “fold change of affinity” value is reported as 0.1 fold. For B20, the “fold change of affinity” value was 0.7 fold. B21 was tested, and the “fold change of affinity” value was 0.5 fold. For B22, the “fold change of affinity” value was 0.8 fold.
